What was measured:
[1] = biological target: T1, human ROR1 on cells (HEK293T-hROR1, PANC-1, A549) (human, UniProt Q01973 30-937); test: flow cytometry on PANC-1 cells, MFI (APC-A Median)
T1 construct: whole, on cells; one molecule for the three cell lines; also called huROR1; cell surface ROR1
Method: (§1) Binding of recombinant anti-ROR1 antibodies to human or cynomolgus ROR1-overexpressing cells was tested by flow cytometry. In this example, ROR1-expressing cell lines are HEK293T cell lines that had been transfected to express human ROR1 on the surface (HEK293T-hu ROR1, KYINNO BIOTECHNOLOGY CO., LTD, Catalog #KC-1018), CHO-K1 cell lines that had been transfected to express cynomolgus ROR1 (CHOK1-cyno ROR1), PANC-1 (ATCC, catalog: CRL-1469) or A549 cell lines (Shanghai Institute of Biochemistry and Cell Biology, Chinese Academy of Sciences).
(§2) In brief, anti-ROR1 antibodies were serially diluted in staining buffer (PBS containing 2% FBS). Antibody solution was incubated with 1×10⁵ cells at 4° C. for 1 hour. […] After 1-hour incubation at 4° C., cells were washed twice with staining buffer and subjected to flow cytometry. PR000374 (Bench marker 1) and non-relevant IgG isotype control (Crownbio) were used as positive and negative controls, respectively.

[2] = biological target: T2, cynomolgus ROR1 on CHO-K1-cynoROR1 cells (cynomolgus monkey, UniProt A0A2K5WTX7 30-937); test: flow cytometry on CHOK1-cynoROR1 cells, MFI (APC-A Median) [top panel]
T2 construct: whole, on cells
Method: as §1, §2

[3] = biological target: T1, human ROR1 on cells (HEK293T-hROR1, …); test: flow cytometry, PANC-1 cells
Method: as §2

[4] = biological target: T2, cynomolgus ROR1 on CHO-K1-cynoROR1 cells; test: flow cytometry, CHO-K1-cynoROR1 cells
Method: as §1, §2

[5] = biological target: T1, human ROR1 on cells (HEK293T-hROR1, …); test: flow cytometry, A549 cells
Method: as §2

[6] = biological target: T3, hu-ROR2-ECD-his (Acrobiosystems RO2-H52E5) (human, UniProt Q01974 34-403); test: ELISA, plate coated with hu-ROR2-his at 1 µg/mL
T3 construct: extracellular domain; bought protein; also called Human ROR2 his-tagged protein; Human ROR2, His Tag
T3 sequence (Q01974 34-403): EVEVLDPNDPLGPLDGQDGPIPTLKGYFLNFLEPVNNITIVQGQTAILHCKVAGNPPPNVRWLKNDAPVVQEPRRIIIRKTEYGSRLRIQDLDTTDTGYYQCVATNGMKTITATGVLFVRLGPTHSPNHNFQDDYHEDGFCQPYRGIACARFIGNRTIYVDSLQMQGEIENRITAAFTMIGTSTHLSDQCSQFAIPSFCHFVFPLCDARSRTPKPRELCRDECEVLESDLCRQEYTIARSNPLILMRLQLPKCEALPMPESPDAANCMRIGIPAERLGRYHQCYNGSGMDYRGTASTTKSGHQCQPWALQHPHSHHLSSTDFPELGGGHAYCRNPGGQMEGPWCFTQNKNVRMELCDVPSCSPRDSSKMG
Method: 1 μg/mL hu-ROR2-ECD-his (Acrobiocystems, RO2-H52E5) was added to the 96-well plate, 100 μL each well, incubated at 4° C. overnight, washing the plates with 1×PBST 3 times, 300 ul/well, blocking the plates with 2% BSA in 1×PBST, 200 ul/well at 37° C. for 1 hour, anti-ROR1 antibodies were serially diluted in staining buffer (PBS containing 2% BSA). Antibody solution was added to the plate and incubates at 37° C. for 1 hour, washing the plates with 1×PBST 3 times, 300 ul/well, adding secondary antibody 100 ul/well and incubate at 37° C. for 1 hour, washing the plates with 1×PBST 3 times, 300 ul/well and then add 100 ul/well TMB for about 5 min, stop the reaction by adding 100 ul/well 2M H₂SO₄, read the plates with Molecular device spectra max plus384 at 450 nm and 570 nm.

[7] = biological target: T2, cynomolgus ROR1 on CHO-K1-cynoROR1 cells; test: flow cytometry, CHO-K1-cynoROR1 cells; remark: listed apart in the source
Method: as §2

[8] = biological target: T1, human ROR1 on cells (HEK293T-hROR1, …); test: flow cytometry, HEK293T-hROR1 cells
Method: as §2

[9] = biological target: T4, Human ROR1-ECD-his (Acro Biosystems RO1-H522y) (human, UniProt Q01973 30-406); test: ELISA, coated hu-ROR1-ECD-his
T4 construct: extracellular domain; bought protein; also called hROR1-ECD-his; hu-ROR1-ECD-his
T4 sequence (Q01973 30-406): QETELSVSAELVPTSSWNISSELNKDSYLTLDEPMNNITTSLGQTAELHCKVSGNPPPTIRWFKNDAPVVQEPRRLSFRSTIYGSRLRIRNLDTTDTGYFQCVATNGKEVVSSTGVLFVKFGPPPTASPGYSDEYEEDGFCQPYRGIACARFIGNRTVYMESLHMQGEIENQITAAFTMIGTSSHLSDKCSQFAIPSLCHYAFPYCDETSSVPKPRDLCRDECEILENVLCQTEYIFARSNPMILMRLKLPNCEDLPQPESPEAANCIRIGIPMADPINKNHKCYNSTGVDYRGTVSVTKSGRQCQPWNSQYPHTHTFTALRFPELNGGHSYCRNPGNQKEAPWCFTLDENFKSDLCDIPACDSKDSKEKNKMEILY
Method: Binding of recombinant anti-ROR1 antibodies to hu-ROR1-ECD-his was tested by ELISA. In brief, 1 μg/mL hu-ROR1-ECD-his was added to the 96-well plate, 100 μL each well, incubated at 4° C. overnight, washing the plates with 1×PBST 3 times, 300 ul/well, blocking the plates with 2% BSA in 1×PBST, 200 ul/well at 37° C. for 1 hour, anti-ROR1 antibodies were serially diluted in staining buffer (PBS containing 2% BSA). Antibody solution was added to the plate and incubates at 37° C. for 1 hour, washing the plates with 1×PBST 3 times, 300 ul/well, adding secondary antibody 100 ul/well and incubate at 37° C. for 1 hour, washing the plates with 1×PBST 3 times, 300 ul/well and then add 100 ul/well TMB for about 5 min, stop the reaction by adding 100 ul/well 2M H₂SO₄, read the plates with Molecular device spectra max plus384 at 450 nm and 570 nm.

[10] = biological target: T4, Human ROR1-ECD-his (Acro Biosystems …); test: BLI, ROR1-His on HIS1K sensor, antibody in solution
Method: In the example, binding kinetics of anti-ROR1 antibodies to soluble ROR1 protein were analyzed by using Bio-Layer Interferometry (BLI) analysis on Fortebio Octet Red384 instrument (Fortebio).
In BLI analysis, recombinant anti-ROR1 antibodies was serially diluted with 10× kinetics buffer (Fortebio). Human ROR1-His proteins were diluted to 20 nM. Then the diluted antibodies, ROR1 proteins and regeneration buffer (10 mM glycine HCl pH 1.5) were added to 96-well plates (Greiner). Rate constants for association and dissociation were measured using HIS1K sensor (Fortebio). The sensor surface was regenerated after each binding experiment with regeneration buffer. The traces were processed using Octet Data Analysis Software (version 11.0, Pall ForteBio, CA, USA).

[11] = biological target: T1, human ROR1 on cells (HEK293T-hROR1, …); test: flow cytometry, PANC-1 cells; remark: listed apart in the source
Method: as §2
Binding activity of the variants to PANC-1 cells were tested using the same method described in example 5.1. The results were shown in FIGS. 7-8 and Table 11 and Table 12.

T1 sequence (Q01973 30-937): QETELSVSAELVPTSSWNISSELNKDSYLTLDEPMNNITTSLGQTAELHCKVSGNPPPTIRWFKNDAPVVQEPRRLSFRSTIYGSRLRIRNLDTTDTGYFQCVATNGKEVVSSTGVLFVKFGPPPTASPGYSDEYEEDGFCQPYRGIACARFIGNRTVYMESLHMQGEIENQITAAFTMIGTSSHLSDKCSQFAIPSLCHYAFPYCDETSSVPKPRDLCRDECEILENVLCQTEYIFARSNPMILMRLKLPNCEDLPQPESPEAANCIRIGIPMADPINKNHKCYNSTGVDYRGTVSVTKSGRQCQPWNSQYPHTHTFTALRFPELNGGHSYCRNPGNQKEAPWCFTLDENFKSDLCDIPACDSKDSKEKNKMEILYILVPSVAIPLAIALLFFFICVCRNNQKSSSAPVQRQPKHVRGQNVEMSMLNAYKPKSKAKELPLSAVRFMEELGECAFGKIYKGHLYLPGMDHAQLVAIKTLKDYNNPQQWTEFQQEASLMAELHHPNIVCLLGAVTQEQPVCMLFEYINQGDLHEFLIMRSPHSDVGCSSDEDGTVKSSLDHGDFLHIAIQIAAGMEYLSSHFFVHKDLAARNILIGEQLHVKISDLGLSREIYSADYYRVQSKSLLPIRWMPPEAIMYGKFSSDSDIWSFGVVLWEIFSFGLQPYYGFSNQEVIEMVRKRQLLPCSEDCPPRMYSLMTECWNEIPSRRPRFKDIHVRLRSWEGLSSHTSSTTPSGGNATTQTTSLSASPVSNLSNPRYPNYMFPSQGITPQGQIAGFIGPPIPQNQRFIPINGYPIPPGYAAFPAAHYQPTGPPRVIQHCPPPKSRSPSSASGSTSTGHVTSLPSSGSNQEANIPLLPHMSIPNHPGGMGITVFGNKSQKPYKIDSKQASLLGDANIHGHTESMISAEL

B1: PR005339 (antibody, human IgG1, V domains shown)
VH: EVQLVESGGGLVKPGGSLKLSCAASGFTFSDYYMSWIRQAPGKGVEWISYISNNGSTIHYADSVKGRFTISRDNAKNSLYLQMNSLRAEDTAVYYCARDFNNGWYEDFDYWGQGTLVTVSS
notes: HCAb (heavy chain-only, human IgG1 Fc), no light chain
EC50 (read off the curve) [1]: ~2 nM | EC50 (read off the curve) [2]: ~4 nM | Max [3]: 16200 | Max [4]: 34800

B2: PR005342 (antibody, human IgG1, V domains shown)
VH: EVQLVESGGGLVKPGGSLRLSCAASGFNFSDYYMSWIRQAPGKGLEWISYISNSSSTIYYADSVKGRFTISRDNAKNSLYLQMSRLRAEDTAMYYCARDTTNGWYEDFDYWGQGTLVTVSS
notes: as for B1
EC50 (read off the curve) [1]: ~4 nM | EC50 (read off the curve) [2]: ~7 nM | Max [3]: 16700 | Max [4]: 34500

B3: PR303155 (antibody, human IgG1, V domains shown)
VH: EVQLVESGGGLVKPGGSLRLSCAASGFTLSDYYMSWIRQAPGKGLEWISYISSNGSTIYYADSVKGRFTISRDNARNSLYLQMNSLRAEDTALYYCARDVSSGWYEDFDYWGQGTLVTVSS
notes: as for B1
EC50 [5]: 1.32 µg/mL | MAX(MFI) [5]: 791000 MFI | binding result [6]: no binding (tested: about 15 µg/ml) | EC50 [7]: 0.804 µg/mL | MAX(MFI) [7]: 1.1e+07 MFI | EC50 [8]: 0.267 µg/mL | MAX(MFI) [8]: 1.49e+07 MFI | EC50 [3]: 1.07 µg/mL | MAX(MFI) [3]: 552000 MFI | EC50 [9]: 0.002 µg/mL | Kd [10]: 6.83 nM | koff [10]: 0.00336 s⁻¹ | kon [10]: 492000 M⁻¹ s⁻¹

B4: PR005346 (antibody, human IgG1, V domains shown)
VH: EVQLVESGGGLVKPGGSLRLSCAASGFTLSDYYMSWIRQAPGKGLEWVSNISKNGFTIYYAESVKGRFTVSRDNAKNSLYLQMNSLRAEDTAIYYCARDSSGWYSEFDYWGQGTLVTVSS
notes: as for B1
Max [3]: 10200 | Max [4]: 26600

B5: PR005345 (antibody, human IgG1, V domains shown)
VH: EVQLVESGGGLVKPGGSLRLSCAASGFTFSDYYMSWIRQAPGKGLEWIAYISSSGSTIHYSDSVKGRFTISRDNAKNSLYLQMNSLRAEDTAVYYCARDTPSSSSDWVSLQFDYWGQGTPVTVSS
notes: as for B1
Max [3]: 9710 | Max [4]: 24600

B6: PR007421 (antibody, V domains shown)
VH: EVQLVESGGGLVKPGGSLRLSCAASGFTFSDFYMSWIRQAPGKGLEWISYIDSSGRPLAYADSVKGRFTISRDNAKNSLYLQMNSLRAEDTAIYYCARDMPSSSSDWVSLQFDYWGQGTLVTVSS
notes: bivalent form (HCAb) variant of PR005340, no light chain
TOP [11]: 86600

B7: PR005348 (antibody, human IgG1, V domains shown)
VH: EVQLVESGGGLVKPGGSLRLSCAASGFTFSDYYMSWIRQTPGKGLEWVSYISRSGSTKYYADSVKGRFTISRDNAKNSLYLQMNSLRAEDTAVYYCARDAPSSNSDWVSLHFDHWGQGTLVTVSS
notes: as for B1
Max [3]: 10200 | Max [4]: 28000

B8: PR303145 (antibody, human IgG1, V domains shown)
VH: QVQLVESGGGLVKPGGSLRISCAASGFTFSNYNMSWIRQAPGKGVEWVSHISGSGRTIYYAESVKGRFTISRDNAKNSLYLQMNSLRAEDTAMYYCARDLSSGWYEDFDYWGQGTLVTVSS
notes: as for B1
EC50 [5]: 0.93 µg/mL | MAX(MFI) [5]: 875000 MFI | binding result [6]: no binding (tested: about 15 µg/ml) | EC50 [7]: 0.474 µg/mL | MAX(MFI) [7]: 1.04e+07 MFI | EC50 [8]: 0.158 µg/mL | MAX(MFI) [8]: 1.35e+07 MFI | EC50 [3]: 0.654 µg/mL | MAX(MFI) [3]: 653000 MFI | EC50 [9]: 0.002 µg/mL | Kd [10]: 11.1 nM | koff [10]: 0.0031 s⁻¹ | kon [10]: 278000 M⁻¹ s⁻¹

B9: PR005341 (antibody, human IgG1, V domains shown)
VH: EVQLVESGGGLVKPGGSLRLSCVASGFTFSDYYMSWIRQAPGKGLEWISYISSSGSSIYYAESVKGRFTISRDNAKNSLYLQMNRLRAEDTALYYCARTPPSSDNWYEDFDYWGQGALVTVSS
notes: as for B1
EC50 (read off the curve) [1]: ~2 nM | EC50 (read off the curve) [2]: ~3 nM | Max [3]: 16500 | Max [4]: 32900

B10: PR005337 (antibody, human IgG1, V domains shown)
VH: EVQLVESGGGLVKPGGSLRLSCAASGFIFSDYYMSWIRQAPGKGLEWVSYISSSGSTIHYADSVKGRFTVSRDNAKNSLYLQMNSLRTEDTAVYYCARDPPTSNSDWVSLHFDHWGQGTLVTVSS
notes: as for B1
EC50 (read off the curve) [1]: ~20 nM | EC50 (read off the curve) [2]: ~20 nM | Max [3]: 14700 | Max [4]: 31100

B11: PR005343 (antibody, human IgG1, V domains shown)
VH: EVQLVESGGGLVKPGGSLRLSCVASGFTFSDYYMSWIRQAPGKGMEWISYISSSGSTKNYANSVKGRFTISRDNAKNSLYLQMNSLRAEDTAAYYCARVPPYNASWYEDFDYWGQGTLVTVSS
notes: as for B1
EC50 (read off the curve) [1]: ~2 nM | EC50 (read off the curve) [2]: ~4 nM | Max [3]: 18300 | Max [4]: 34100

B12: PR005347 (antibody, human IgG1, V domains shown)
VH: EVQLVESGGGLVKPGGSLRLSCVTSGFTFSDYYMSWIRQAPGKGMEWISYISTTGSTKNYANSVKGRFTISRDNAKSSLYLQMNSLRAEDTAAYYCARVPPSNASWYEDFDYWGQGTLVTVSS
notes: as for B1
EC50 (read off the curve) [1]: ~8 nM | EC50 (read off the curve) [2]: ~10 nM | Max [3]: 16400 | Max [4]: 32700

B13: PR303199 (antibody, human IgG1, V domains shown)
VH: EVQLVESGGGLVKPGGSLRLSCAASGFTFSDYYMSWIRQAPGKGLEWIAYISSSGSTIYYADSVKGRFTISRDNAKNSLYLQMNSLRAEDTAIYYCAREYYGSENYDHFDYWGQGTLVTVSS
notes: as for B1
EC50 [5]: 6.79 µg/mL | MAX(MFI) [5]: 408000 MFI | binding result [6]: no binding (tested: about 15 µg/ml) | EC50 [7]: 1.43 µg/mL | MAX(MFI) [7]: 6.85e+06 MFI | EC50 [8]: 0.191 µg/mL | MAX(MFI) [8]: 1.53e+07 MFI | EC50 [3]: 11.3 µg/mL | MAX(MFI) [3]: 462000 MFI | EC50 [9]: 0.006 µg/mL | Kd [10]: 14.1 nM | koff [10]: 0.00173 s⁻¹ | kon [10]: 123000 M⁻¹ s⁻¹

B14: PR005350 (antibody, human IgG1, V domains shown)
VH: EVQLVESGGGLVKPGGSLRLSCAASGFTLSDSQMSWIRQAPGKGVEWVSYISSSGNTIYYGDSVKGRFTISRDNAKNSLFLQMNSLRAEDTAVYYCARVPPSSSNWYEDFDIWGQGTLVTVSS
notes: as for B1
Max [3]: 4250 | Max [4]: 14400

Source: patent US20250257130A1 (NONA BIOSCIENCES SUZHOU, published 2025)
